Patent US20180355035A1 (STCUBE, published 2018)

What was measured:
[1] = biological target: T1, human BTN1A1 extracellular domain tagged with human IgG1 Fc (human, UniProt Q13410 27-242); experiment: SPR (Biacore), STC810 captured on Protein A chip, BTN1A1-ECD-Fc injected; column headed 'kd (1/Ms)'
T1 construct: also called hBTN1A1-Fc; BTN1A1-Fc; not shown: human IgG1 Fc region
T1 chain: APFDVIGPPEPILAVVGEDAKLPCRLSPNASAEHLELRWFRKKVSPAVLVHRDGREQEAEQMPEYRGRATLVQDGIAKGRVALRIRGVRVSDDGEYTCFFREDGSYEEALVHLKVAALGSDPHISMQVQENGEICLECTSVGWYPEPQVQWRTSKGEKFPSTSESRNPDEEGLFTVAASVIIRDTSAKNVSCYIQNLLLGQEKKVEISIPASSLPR
Experimental: (§1) FIG. 11—Surface plasmon resonance analysis of BTN1A1-Fc and BTN1A1-His binding to immobilized STC810 MAb. FIG. 11A: Sensorgrams showing real-time binding of soluble BTN1A1-Fc protein (2-64 nM with 2-fold dilution) to STC810 immobilized on a Protein A-CM5 chip. Flow cells without any immobilized protein were used as the controls for non-specific binding and were subtracted from the presented data. FIG. 11B: Sensorgrams showing real-time binding of soluble BTN1A1-His protein (2-64 nM with 4-fold dilution) to STC810 immobilized on a Protein A-CM5 chip.
(§2) In a Biacore assay, the binding affinity between BTN1A1 and monoclonal anti-BTN1A1 antibody STC810 was measured by Surface Plasmon Resonance. Sensorgram and saturation curve of the titration of antibody by BTN1A1-ECD tagged with 6×His or human IgG1 Fc. The protein A chip (BIAcore) was coated with antibody with 600 response units (RU) and the BTN1A1 ECD was injected in the microfluidic channel. The KD values were obtained using the fitting tool of the BIAevaluation software (BIAcore). FIG. 11 provides sensorgrams showing real-time binding of soluble BTN1A1-Fc protein (2-64 nM with 2-fold dilution; FIG. 11A) or soluble BTN1A1-His protein (2-64 nM with 4-fold dilution; FIG. 11B) to STC810 immobilized on a Protein A-CM5 chip. […]

mBTNA1A-FC = biological target: T2, mBTNA1A-FC (Mus musculus, UniProt Q62556); experiment: dot blot (layout FIG. 9B), lanes 5-8 mBTNA1A-FC = mouse BTN1A1-Fc, untreated and PNGase F treated
T2 construct: antigen of lanes 5-8 of the dot blot, used untreated and PNGase F treated; the sheet prints mBTNA1A-FC; also called mouse BTN1A1-Fc; mouse BTN1A1 tagged with human IgG1 Fc region
T2 sequence (Fc fusion chain, looked up): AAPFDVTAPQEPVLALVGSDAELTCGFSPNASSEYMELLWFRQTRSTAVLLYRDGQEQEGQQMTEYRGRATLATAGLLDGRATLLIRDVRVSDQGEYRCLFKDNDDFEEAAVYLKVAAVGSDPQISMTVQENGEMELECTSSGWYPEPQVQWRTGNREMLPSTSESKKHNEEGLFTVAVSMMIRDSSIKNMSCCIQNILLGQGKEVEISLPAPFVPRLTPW
Experimental: FIG. 9—Dot blot analysis of mouse anti-human BTN1A1 antibodies. […] Antigen BTN1A1-ECD tagged with 6×His was treated with PNGase F to remove N-glycosylation. Polyclonal antibodies were used for positive control. To test the species specificity of BTN1A1, human and mouse BTN1A1 tagged with human IgG1 Fc region was used (lane 1-4 with human BTN1A1-Fc and lane 5-8 with mouse BTN1A1-Fc). The term “ECD” stands for extracellular domain.
The glyco-specificity of monoclonal anti-BTN1A1 antibodies was characterized by dot blot analysis. Each anti-BTN1A1 mAb (0.5 μg/well loaded) was tested for binding to glycosylated BTN1A1 (PNGaseF “−”) or deglycosylated BTN1A1 (PNGaseF “+”). Non-specific antibody controls (“IgG,” 0.25 μg/well loaded) was also included in the assay. As shown in FIGS. 9A-9B, both glycosylated BTN1A1 protein and non-glycosylated BTN1A1 (BTN1A1 protein treated with PNGase F) were coated on the solid phase and tested for mAbs and antigens binding affinity. […] The glyco-specificity of monoclonal anti-BTN1A1 antibodies was also characterized by FACS analysis. […] After washing, fluorescence intensity (MFI) was measured to assess relative binding of antibodies to membrane bound glycosylated or unglycosylated BTN1A1.

[2] = biological target: T1, human BTN1A1 extracellular domain …; experiment: BLI (Octet), antibody loaded on sensor, single analyte concentration, 1:1 fit; column headed 'ka (1/s)'
Experimental: (§3) The KD value of STC810 was also determined in an octet assay. […] Baseline was established in PBS containing 1 mg/ml bovine serum albumin (assay buffer), the association step was performed by submerging the sensors in a single concentration of analyte in assay buffer. Dissociation was performed and monitored in fresh assay buffer. All experiments were performed with sensor shaking at 1,000 rpm. ForteBio's data analysis software was used to fit the data to a 1:1 binding model to extract an association rate and dissociation rate. The KD value was calculated using the ratio kd/ka. In a typical epitope binning assay, antigen BTN1A1-Fc (10 nM) was preincubated with the second antibody (10 nM) for 1 h at room temperature. Control antibody (20 nM) was loaded onto AMC sensors (ForteBio) and remaining Fc-binding sites on the sensor were blocked with a whole mouse IgG antibody (Jackson ImmunoResearch). The sensors were exposed to preinculated antigen-second antibody mixture. Raw data was processed using ForteBio's Data Analysis Software 7.0 and the antibody pairs were assessed for competitive binding. Additional binding by the second antibody indicates an unoccupied epitope (non-competitor), while no binding indicates epitope blocking (competitor).

[3] = biological target: T3, human BTN1A1 extracellular domain tagged with 6xHis (human, UniProt Q13410 27-242, N-glycosylated (removed by PNGase F in the deglycosylated control)); experiment: SPR (Biacore), STC810 captured on Protein A chip, BTN1A1-ECD-His injected; column headed 'ka (1/s)'
T3 construct: also called hBTN1A1-His; BTN1A1-His
T3 chain: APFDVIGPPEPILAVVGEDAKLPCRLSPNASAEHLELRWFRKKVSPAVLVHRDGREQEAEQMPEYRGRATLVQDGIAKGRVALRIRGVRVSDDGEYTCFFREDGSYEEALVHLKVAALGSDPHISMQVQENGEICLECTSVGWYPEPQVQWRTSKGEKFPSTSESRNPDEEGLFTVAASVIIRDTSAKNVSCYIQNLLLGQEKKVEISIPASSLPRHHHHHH
Experimental: as §1, §2

[4] = biological target: T1, human BTN1A1 extracellular domain …; experiment: SPR (Biacore), STC810 captured on Protein A chip, BTN1A1-ECD-Fc injected; column headed 'ka (1/s)'
Experimental: as §1, §2

[5] = biological target: T1, human BTN1A1 extracellular domain …; experiment: BLI (Octet), antibody loaded on sensor, single analyte concentration, 1:1 fit
Experimental: as §3

[6] = biological target: T3, human BTN1A1 extracellular domain …; experiment: SPR (Biacore), STC810 captured on Protein A chip, BTN1A1-ECD-His injected
Experimental: as §1, §2

[7] = biological target: T4, wild-type human BTN1A1 expressed in HEK293T cells (human, UniProt Q13410 27-526, fully glycosylated, as the filing says); experiment: FACS on 293T cells overexpressing BTN1A1 WT or 2NQ, FITC secondary antibody
T4 construct: in whole-cell lysates in the Western blot; also called BTN1A1 WT; human BTN1A1 WT; not shown: C-terminal flag tag
T4 sequence: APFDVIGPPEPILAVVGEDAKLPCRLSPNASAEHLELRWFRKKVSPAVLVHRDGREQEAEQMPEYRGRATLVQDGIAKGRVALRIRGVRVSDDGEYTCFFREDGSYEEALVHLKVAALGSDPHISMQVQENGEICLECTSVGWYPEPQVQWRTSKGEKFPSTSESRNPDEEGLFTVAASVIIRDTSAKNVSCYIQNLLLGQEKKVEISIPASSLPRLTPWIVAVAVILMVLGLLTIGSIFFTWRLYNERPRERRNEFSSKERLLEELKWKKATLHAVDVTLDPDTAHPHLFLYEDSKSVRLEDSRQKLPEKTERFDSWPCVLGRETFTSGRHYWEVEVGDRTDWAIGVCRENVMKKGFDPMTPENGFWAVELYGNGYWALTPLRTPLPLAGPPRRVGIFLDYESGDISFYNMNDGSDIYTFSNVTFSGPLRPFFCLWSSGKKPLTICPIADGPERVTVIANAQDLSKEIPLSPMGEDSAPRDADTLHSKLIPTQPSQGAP
Experimental: FIG. 10—FACS analysis of mouse anti-human BTN1A1 monoclonal antibodies. Human BTN1A1-2NQ (i.e. N55Q and N215Q) and human BTN1A1 WT were expressed in HEK293T cells by transient transfection. The surface expression of hBTN1A1 was measured by FACS analysis with anti-BTN1A1 monoclonal antibodies designated as STC702, STC810, STC819, STC820, STC821, STC822, STC838, and STC839. Anti-BTN1A1 polyclonal antibodies were used as a positive control.
The glyco-specificity of monoclonal anti-BTN1A1 antibodies was characterized by dot blot analysis. Each anti-BTN1A1 mAb (0.5 μg/well loaded) was tested for binding to glycosylated BTN1A1 (PNGaseF “−”) or deglycosylated BTN1A1 (PNGaseF “+”). Non-specific antibody controls (“IgG,” 0.25 μg/well loaded) was also included in the assay. As shown in FIGS. 9A-9B, both glycosylated BTN1A1 protein and non-glycosylated BTN1A1 (BTN1A1 protein treated with PNGase F) were coated on the solid phase and tested for mAbs and antigens binding affinity. […] The glyco-specificity of monoclonal anti-BTN1A1 antibodies was also characterized by FACS analysis. […] After washing, fluorescence intensity (MFI) was measured to assess relative binding of antibodies to membrane bound glycosylated or unglycosylated BTN1A1. […]

[8] = biological target: T5, hBTN1A1 overexpressed in PC3 prostate cancer cells (human, UniProt Q13410 27-526); experiment: cell-based or functional assay
T5 sequence: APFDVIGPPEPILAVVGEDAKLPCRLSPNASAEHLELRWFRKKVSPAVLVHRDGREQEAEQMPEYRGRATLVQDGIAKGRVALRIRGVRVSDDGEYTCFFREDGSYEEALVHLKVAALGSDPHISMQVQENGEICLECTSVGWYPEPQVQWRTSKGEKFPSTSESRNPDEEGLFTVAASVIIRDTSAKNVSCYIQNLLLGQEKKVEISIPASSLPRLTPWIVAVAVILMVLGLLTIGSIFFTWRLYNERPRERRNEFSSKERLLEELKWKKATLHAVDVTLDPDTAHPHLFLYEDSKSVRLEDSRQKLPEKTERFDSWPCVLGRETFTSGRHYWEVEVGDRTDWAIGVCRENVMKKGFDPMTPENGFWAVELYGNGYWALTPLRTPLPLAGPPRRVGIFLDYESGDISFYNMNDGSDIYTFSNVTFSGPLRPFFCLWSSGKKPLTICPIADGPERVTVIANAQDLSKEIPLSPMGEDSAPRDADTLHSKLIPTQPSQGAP

[9] = biological target: T3, human BTN1A1 extracellular domain …; experiment: SPR (Biacore), STC810 captured on Protein A chip, BTN1A1-ECD-His injected; column headed 'kd (1/Ms)'
Experimental: as §1, §2

[10] = biological target: T1, human BTN1A1 extracellular domain …; experiment: BLI (Octet), antibody loaded on sensor, single analyte concentration, 1:1 fit; column headed 'kd (1/Ms)'
Experimental: as §3

[11] = biological target: T1, human BTN1A1 extracellular domain …; experiment: SPR (Biacore), STC810 captured on Protein A chip, BTN1A1-ECD-Fc injected
Experimental: as §1, §2

- kon [1]: 98900 M⁻¹ s⁻¹
- binding result (mBTNA1A-FC): no binding (tested: 0.5 µg/well)
- koff [2]: 0.000309 s⁻¹
- koff [3]: 0.00402 s⁻¹
- koff [4]: 0.00018 s⁻¹
- Kd [5]: 2.12 nM
- Kd [6]: 14.9 nM
- fold MFI on glycosylated BTN1A1 (WT) over unglycosylated BTN1A1 (2NQ) [7]: 5 fold
- relative apoptosis of PC3 cells at 120 h (caspase 3/7), with activated T cells, 50 µg/ml STC810 [8]: 2 fold
- kon [9]: 269000 M⁻¹ s⁻¹
- kon [10]: 145000 M⁻¹ s⁻¹
- Kd [11]: 1.81 nM
B1: mouse monoclonal anti-human BTN1A1 antibody STC810 (antibody, V domains shown)
VH: EVQLQQSGPELVKPGASVKISCKASGYTFTHYNMDWVKQSHGKSLEWIGYIYPSNGGTGYNQKFKSRATLTVDKSSSTAYMELHSLTSEDSAVYYCARGAYHYGSSYAYWYFDVWGAGTTVTVSS
VL: DIQMTQTTSSLSASLGDRVTISCSASQDISNYLNWYQQKPDETVKLLISYTSSLHSGVPSRFSGSGSGTDYSLTISNLAPEDIATYYCQQSSKLPFTFGSGTELEIKR
notes: also called STC838; STC810 MAb
